The record followed here is patent publication US20140087995A1 (published 2014).

The chains are these.
T1: human calcitonin receptor (human, UniProt P30988 25-474)
T1 construct: whole, on cells; also called hCTR; hCT
T1 sequence (looked up): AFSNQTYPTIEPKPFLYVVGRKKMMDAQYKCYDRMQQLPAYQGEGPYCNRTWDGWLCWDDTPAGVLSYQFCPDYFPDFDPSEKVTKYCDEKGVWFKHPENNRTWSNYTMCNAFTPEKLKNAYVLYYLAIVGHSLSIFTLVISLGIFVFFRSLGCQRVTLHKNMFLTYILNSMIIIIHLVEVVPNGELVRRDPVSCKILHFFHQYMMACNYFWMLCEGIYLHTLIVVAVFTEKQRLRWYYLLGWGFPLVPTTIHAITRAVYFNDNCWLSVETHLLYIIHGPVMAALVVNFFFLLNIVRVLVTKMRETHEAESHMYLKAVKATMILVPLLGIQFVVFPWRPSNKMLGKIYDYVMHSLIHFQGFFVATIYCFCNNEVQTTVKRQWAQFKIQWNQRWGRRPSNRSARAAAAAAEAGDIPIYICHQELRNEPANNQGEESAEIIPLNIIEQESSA

B1: N^α1-[(4S)-4-carboxy-4-(19-carboxynonadecanoylamino)butanoyl]-[Glu14,Arg17,Pro21,Pro25,Pro28,Pro29]-h-amylin (peptide)
peptide: {C20 diacid-γGlu}-KCNTATCATQRLAEFLRHSSPNFGPILPPTNVGSNTY-NH2
modifications: disulfide 2-7
SMILES: CC[C@H](C)[C@H](NC(=O)[C@@H]1CCCN1C(=O)CNC(=O)[C@H](Cc1ccccc1)NC(=O)[C@H](CC(N)=O)NC(=O)[C@@H]1CCCN1C(=O)[C@H](CO)NC(=O)[C@H](CO)NC(=O)[C@H](Cc1c[nH]cn1)NC(=O)[C@H](CCCNC(=N)N)NC(=O)[C@H](CC(C)C)NC(=O)[C@H](Cc1ccccc1)NC(=O)[C@H](CCC(=O)O)NC(=O)[C@H](C)NC(=O)[C@H](CC(C)C)NC(=O)[C@H](CCCNC(=N)N)NC(=O)[C@H](CCC(N)=O)NC(=O)[C@@H](NC(=O)[C@H](C)NC(=O)[C@@H]1CSSC[C@H](NC(=O)[C@H](CCCCN)NC(=O)CC[C@H](NC(=O)CCCCCCCCCCCCCCCCCCC(=O)O)C(=O)O)C(=O)N[C@@H](CC(N)=O)C(=O)N[C@@H]([C@@H](C)O)C(=O)N[C@@H](C)C(=O)N[C@@H]([C@@H](C)O)C(=O)N1)[C@@H](C)O)C(=O)N[C@@H](CC(C)C)C(=O)N1CCC[C@H]1C(=O)N1CCC[C@H]1C(=O)N[C@H](C(=O)N[C@@H](CC(N)=O)C(=O)N[C@H](C(=O)NCC(=O)N[C@@H](CO)C(=O)N[C@@H](CC(N)=O)C(=O)N[C@H](C(=O)N[C@@H](Cc1ccc(O)cc1)C(N)=O)[C@@H](C)O)C(C)C)[C@@H](C)O
notes: also called compound 6
B2: N^α1-[2-[2-[2-[[2-[2-[2-[[(4S)-4-carboxy-4-(19-carboxynonadecanoylamino)butanoyl]amino]ethoxy]ethoxy]acetyl]amino]ethoxy]ethoxy]acetyl]-[Arg17,Pro21,Pro27]-h-am … (peptide)
peptide: KCNTATCATQRLANFLRHSSPNFGAIPSSTNVGSNTY
modifications: C20 diacid-gGlu-2xOEG on alpha amino group of N-terminal Lys 1; disulfide Cys2-Cys7; C-terminal amide (as human amylin)
notes: also called compound 24
B3: N^ε1-[2-[2-[2-[[(4S)-4-carboxy-4-(19-carboxynonadecanoylamino)butanoyl]amino]ethoxy]ethoxy]acetyl]-[Arg17,Pro21,Pro27]-h-amylin (peptide)
peptide: K([AEEA-γGlu-C20 diacid])CNTATCATQRLANFLRHSSPNFGAIPSSTNVGSNTY-NH2
modifications: disulfide 2-7; N-terminus assumed
SMILES: CC[C@H](C)[C@H](NC(=O)[C@H](C)NC(=O)CNC(=O)[C@H](Cc1ccccc1)NC(=O)[C@H](CC(N)=O)NC(=O)[C@@H]1CCCN1C(=O)[C@H](CO)NC(=O)[C@H](CO)NC(=O)[C@H](Cc1c[nH]cn1)NC(=O)[C@H](CCCNC(=N)N)NC(=O)[C@H](CC(C)C)NC(=O)[C@H](Cc1ccccc1)NC(=O)[C@H](CC(N)=O)NC(=O)[C@H](C)NC(=O)[C@H](CC(C)C)NC(=O)[C@H](CCCNC(=N)N)NC(=O)[C@H](CCC(N)=O)NC(=O)[C@@H](NC(=O)[C@H](C)NC(=O)[C@@H]1CSSC[C@H](NC(=O)[C@@H](N)CCCCNC(=O)COCCOCCNC(=O)CC[C@H](NC(=O)CCCCCCCCCCCCCCCCCCC(=O)O)C(=O)O)C(=O)N[C@@H](CC(N)=O)C(=O)N[C@@H]([C@@H](C)O)C(=O)N[C@@H](C)C(=O)N[C@@H]([C@@H](C)O)C(=O)N1)[C@@H](C)O)C(=O)N1CCC[C@H]1C(=O)N[C@@H](CO)C(=O)N[C@@H](CO)C(=O)N[C@H](C(=O)N[C@@H](CC(N)=O)C(=O)N[C@H](C(=O)NCC(=O)N[C@@H](CO)C(=O)N[C@@H](CC(N)=O)C(=O)N[C@H](C(=O)N[C@@H](Cc1ccc(O)cc1)C(N)=O)[C@@H](C)O)C(C)C)[C@@H](C)O
notes: also called compound 41
B4: N^-1-[(4S)-4-carboxy-4-(19-carboxynonadecanoylamino)butanoyl]-Gly[Arg1,Arg17,Pro21,Pro27,His35]-h-amylin (peptide)
peptide: {C20 diacid-γGlu}-GRCNTATCATQRLANFLRHSSPNFGAIPSSTNVGSHTY-NH2
modifications: disulfide 3-8
SMILES: CC[C@H](C)[C@H](NC(=O)[C@H](C)NC(=O)CNC(=O)[C@H](Cc1ccccc1)NC(=O)[C@H](CC(N)=O)NC(=O)[C@@H]1CCCN1C(=O)[C@H](CO)NC(=O)[C@H](CO)NC(=O)[C@H](Cc1c[nH]cn1)NC(=O)[C@H](CCCNC(=N)N)NC(=O)[C@H](CC(C)C)NC(=O)[C@H](Cc1ccccc1)NC(=O)[C@H](CC(N)=O)NC(=O)[C@H](C)NC(=O)[C@H](CC(C)C)NC(=O)[C@H](CCCNC(=N)N)NC(=O)[C@H](CCC(N)=O)NC(=O)[C@@H](NC(=O)[C@H](C)NC(=O)[C@@H]1CSSC[C@H](NC(=O)[C@H](CCCNC(=N)N)NC(=O)CNC(=O)CC[C@H](NC(=O)CCCCCCCCCCCCCCCCCCC(=O)O)C(=O)O)C(=O)N[C@@H](CC(N)=O)C(=O)N[C@@H]([C@@H](C)O)C(=O)N[C@@H](C)C(=O)N[C@@H]([C@@H](C)O)C(=O)N1)[C@@H](C)O)C(=O)N1CCC[C@H]1C(=O)N[C@@H](CO)C(=O)N[C@@H](CO)C(=O)N[C@H](C(=O)N[C@@H](CC(N)=O)C(=O)N[C@H](C(=O)NCC(=O)N[C@@H](CO)C(=O)N[C@@H](Cc1c[nH]cn1)C(=O)N[C@H](C(=O)N[C@@H](Cc1ccc(O)cc1)C(N)=O)[C@@H](C)O)C(C)C)[C@@H](C)O
notes: also called compound 47
B5: N^-1-[(4S)-4-carboxy-4-(19-carboxynonadecanoylamino)butanoyl]-Gly[Arg1,Arg17,Pro21,Pro27]-h-amylin (peptide)
peptide: {C20 diacid-γGlu}-GRCNTATCATQRLANFLRHSSPNFGAIPSSTNVGSNTY-NH2
modifications: disulfide 3-8
SMILES: CC[C@H](C)[C@H](NC(=O)[C@H](C)NC(=O)CNC(=O)[C@H](Cc1ccccc1)NC(=O)[C@H](CC(N)=O)NC(=O)[C@@H]1CCCN1C(=O)[C@H](CO)NC(=O)[C@H](CO)NC(=O)[C@H](Cc1c[nH]cn1)NC(=O)[C@H](CCCNC(=N)N)NC(=O)[C@H](CC(C)C)NC(=O)[C@H](Cc1ccccc1)NC(=O)[C@H](CC(N)=O)NC(=O)[C@H](C)NC(=O)[C@H](CC(C)C)NC(=O)[C@H](CCCNC(=N)N)NC(=O)[C@H](CCC(N)=O)NC(=O)[C@@H](NC(=O)[C@H](C)NC(=O)[C@@H]1CSSC[C@H](NC(=O)[C@H](CCCNC(=N)N)NC(=O)CNC(=O)CC[C@H](NC(=O)CCCCCCCCCCCCCCCCCCC(=O)O)C(=O)O)C(=O)N[C@@H](CC(N)=O)C(=O)N[C@@H]([C@@H](C)O)C(=O)N[C@@H](C)C(=O)N[C@@H]([C@@H](C)O)C(=O)N1)[C@@H](C)O)C(=O)N1CCC[C@H]1C(=O)N[C@@H](CO)C(=O)N[C@@H](CO)C(=O)N[C@H](C(=O)N[C@@H](CC(N)=O)C(=O)N[C@H](C(=O)NCC(=O)N[C@@H](CO)C(=O)N[C@@H](CC(N)=O)C(=O)N[C@H](C(=O)N[C@@H](Cc1ccc(O)cc1)C(N)=O)[C@@H](C)O)C(C)C)[C@@H](C)O
notes: also called compound 46
B6: N^ε1-[2-[2-[2-(19-carboxynonadecanoylamino)ethoxy]ethoxy]acetyl]-[Arg17,Pro21,Pro27]-h-amylin (peptide)
peptide: K([AEEA-C20 diacid])CNTATCATQRLANFLRHSSPNFGAIPSSTNVGSNTY-NH2
modifications: disulfide 2-7; N-terminus assumed
SMILES: CC[C@H](C)[C@H](NC(=O)[C@H](C)NC(=O)CNC(=O)[C@H](Cc1ccccc1)NC(=O)[C@H](CC(N)=O)NC(=O)[C@@H]1CCCN1C(=O)[C@H](CO)NC(=O)[C@H](CO)NC(=O)[C@H](Cc1c[nH]cn1)NC(=O)[C@H](CCCNC(=N)N)NC(=O)[C@H](CC(C)C)NC(=O)[C@H](Cc1ccccc1)NC(=O)[C@H](CC(N)=O)NC(=O)[C@H](C)NC(=O)[C@H](CC(C)C)NC(=O)[C@H](CCCNC(=N)N)NC(=O)[C@H](CCC(N)=O)NC(=O)[C@@H](NC(=O)[C@H](C)NC(=O)[C@@H]1CSSC[C@H](NC(=O)[C@@H](N)CCCCNC(=O)COCCOCCNC(=O)CCCCCCCCCCCCCCCCCCC(=O)O)C(=O)N[C@@H](CC(N)=O)C(=O)N[C@@H]([C@@H](C)O)C(=O)N[C@@H](C)C(=O)N[C@@H]([C@@H](C)O)C(=O)N1)[C@@H](C)O)C(=O)N1CCC[C@H]1C(=O)N[C@@H](CO)C(=O)N[C@@H](CO)C(=O)N[C@H](C(=O)N[C@@H](CC(N)=O)C(=O)N[C@H](C(=O)NCC(=O)N[C@@H](CO)C(=O)N[C@@H](CC(N)=O)C(=O)N[C@H](C(=O)N[C@@H](Cc1ccc(O)cc1)C(N)=O)[C@@H](C)O)C(C)C)[C@@H](C)O
notes: also called compound 43

Numbered stars: 1 amine (or outer) side, 2 acyl side, 3 side chain; on linkers, the order of the positions; unused ones are H or OH. Bridge positions count the residues as written; N and C are the ends. Side chains are listed from the residue outwards. Ends that are not written are not given here. * marks the point of attachment. C20 diacid = O=C(O)CCCCCCCCCCCCCCCCCCC(=O)*; γGlu = O=C(O)[C@H](CCC(=O)[*:2])N[*:1]; AEEA = NCCOCCOCC(=O)O

For the assay, the target named is T1, human calcitonin receptor. As to the kind of experiment: SPA competition with 125I-calcitonin, membranes of BHK hCTR cells (Assay VII). The procedure, abridged:
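BHK hCTR membranes 35 ng/μL + SPA beads 0.05 mg/well; buffer 50 mM Hepes pH 7.4, 1 mM CaCl2, 5 mM MgCl₂, 0.1% OA, 0.02% Tween20. 120 min, 25° C., shaking. Scintillation count; IC50 by one-site binding competition.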
With B1, the IC50 is 19.9 nM. For the molecule B2, the IC50 was determined as 102 nM. Turning to B3, the IC50 is 21.3 nM. The result for B4 reads 15.5 nM; that for B5, 9.53 nM; that for B6, 2.64 nM.

The IC50 is the concentration needed to halve the response being measured.
